Results on 1 protein are retold here after ChEMBL document CHEMBL2073843, “Characterization of the role of polar amino acid residues within predicted transmembrane helix 17 in determining the substrate specificity of multidrug resistance protein 3” (Biochemistry, 2003).

As a reminder, the Km is the concentration of substrate that gives half-maximal velocity.

Substrate in this data set: C[C@]12CC[C@@H]3c4ccc(O)cc4CC[C@H]3[C@@H]1CC[C@@H]2O[C@@H]1O[C@H](C(=O)O)[C@@H](O)[C@H](O)[C@H]1O
The following applies: HEK293; Membrane vesicle.

Description: TP_TRANSPORTER: uptake in membrane vesicles from MRP3-expressing HEK cells

B1: Multidrug resistance associated protein (Homo sapiens), Q96QA9 (protein)
chain: MDALCGSGELGSKFWDSNLSVHTENPDLTPCFQNSLLAWVPCIYLWVALPCYLLYLRHHCRGYIILSHLSKLKMVLGVLLWCVSWADLFYSFHGLVHGRAPAPVFFVTPLVVGVTMLLATLLIQYERLQGVQSSGVLIIFWFLCVVCAIVPFRSKILLAKAEGEISDPFRFTTFYIHFALVLSALILACFREKPPFFSAKNVDPNPYPETSAGFLSRLFFWWFTKMAIYGYRHPLEEKDLWSLKEEDRSQMVVQQLLEAWRKQEKQTARHKASAAPGKNASGEDEVLLGARPRPRKPSFLKALLATFGSSFLISACFKLIQDLLSFINPQLLSILIRFISNPMAPSWWGFLVAGLMFLCSMMQSLILQHYYHYIFVTGVKFRTGIMGVIYRKALVITNSVKRASTVGEIVNLMSVDAQRFMDLAPFLNLLWSAPLQIILAIYFLWQNLGPSVLAGVAFMVLLIPLNGAVAVKMRAFQVKQMKLKDSRIKLMSEILNGIKVLKLYAWEPSFLKQVEGIRQGELQLLRTAAYLHTTTTFTWMCSPFLVTLITLWVYVYVDPNNVLDAEKAFVSVSLFNILRLPLNMLPQLISNLTQASVSLKRIQQFLSQEELDPQSVERKTISPGYAITIHSGTFTWAQDLPPTLHSLDIQVPKGALVAVVGPVGCGKSSLVSALLGEMEKLEGKVHMKGSVAYVPQQAWIQNCTLQENVLFGKALNPKRYQQTLEACALLADLEMLPGGDQTEIGEKGINLSGGQRQRVSLARAVYSDADIFLLDDPLSAVDSHVAKHIFDHVIGPEGVLAGKTRVLVTHGISFLPQTDFIIVLADGQVSEMGPYPALLQRNGSFANFLCNYAPDEDQGHLEDSWTALEGAEDKEALLIEDTLSNHTDLTDNDPVTYVVQKQFMRQLSALSSDGEGQGRPVPRRHLGPSEKVQVTEAKADGALTQEEKAAIGTVELSVFWDYAKAVGLCTTLAICLLYVGQSAAAIGANVWLSAWTNDAMADSRQNNTSLRLGVYAALGILQGFLVMLAAMAMAAGGIQAARVLHQALLHNKIRSPQSFFDTTPSGRILNCFSKDIYVVDEVLAPVILMLLNSFFNAISTLVVIMASTPLFTVVILPLAVLYTLVQRFYAATSRQLKRLESVSRSPIYSHFSETVTGASVIRAYNRSRDFEIISDTKVDANQRSCYPYIISNRWLSIGVEFVGNCVVLFAALFAVIGRSSLNPGLVGLSVSYSLQVTFALNWMIRMMSDLESNIVAVERVKEYSKTETEAPWVVEGSRPPEGWPPRGEVEFRNYSVRYRPGLDLVLRDLSLHVHGGEKVGIVGRTGAGKSSMTLCLFRILEAAKGEIRIDGLNVADIGDPILFSGTLRMNLDPFGSYSEEDIWWALELSHLHTFVSSQPAGLDFQCSEGGENLSVGQRQLVCLARALLRKSRILVLDEATAAIDLETDNLIQATIRTQFDTCTVLTIAHRLNTIMDYTRVLVLDKGVVAEFDSPANLIAARGIFYGMARDAGLA
Regarding B1, the Km came to 29 µM.
